Data: publication doi:10.1101/2021.06.20.449167 (bioRxiv, 2021)

B1: mrpl41 5'UTR (ssRNA)
RNA: GGGGCUCUUGCUGCGACGCAGCGGUCGGAAGCGGAGCAAGGUCGAGGCCGGGUUGGCGCCGGAGCCGGGGCCGCUUGGAGCUCGUGUGGGGUCUCCGGUCCAGGGCGCGGCGCGGCCGC
B2: atp5f1b (atp5b) 3'UTR-50A (ssRNA)
RNA: GGGGGGGUCUUUGUCCUCUGUACUGUCUCUCUCCUUGCCCCUAACCCAAAAAGCUUCAUUUUUCUGUGUAGGCUGCACAAGAGCCUUGAUUGAAGAUAUAUUCUUUCUGAACAGUAUUUAAGGUUUCCAAUAAAAUGUACACCCCUCAGAAAAAAAAAAAAAAAAAAAAAAAAAAAAAAAAAAAAAAAAAAAAAAAAAAAAGCGGCCGC
B3: Fy-2 (Ppp1r21), untagged subunit of the reconstituted FERRY complex (natural protein, human, UniProt Q6ZMI0 1-780, looked up)
chain: MASAELQGKYQKLAQEYSKLRAQNQVLKKGVVDEQANSAALKEQLKMKDQSLRKLQQEMDSLTFRNLQLAKRVELLQDELALSEPRGKKNKKSGESSSQLSQEQKSVFDEDLQKKIEENERLHIQFFEADEQHKHVEAELRSRLATLETEAAQHQAVVDGLTRKYMETIEKLQNDKAKLEVKSQTLEKEAKECRLRTEECQLQLKTLHEDLSGRLEESLSIINEKVPFNDTKYSQYNALNVPLHNRRHQLKMRDIAGQALAFVQDLVTALLNFHTYTEQRIQIFPVDSAIDTISPLNQKFSQYLHENASYVRPLEEGMLHLFESITEDTVTVLETTVKLKTFSEHLTSYICFLRKILPYQLKSLEEECESSLCTSALRARNLELSQDMKKMTAVFEKLQTYIALLALPSTEPDGLLRTNYSSVLTNVGAALHGFHDVMKDISKHYSQKAAIEHELPTATQKLITTNDCILSSVVALTNGAGKIASFFSNNLDYFIASLSYGPKAASGFISPLSAECMLQYKKKAAAYMKSLRKPLLESVPYEEALANRRILLSSTESREGLAQQVQQSLEKISKLEQEKEHWMLEAQLAKIKLEKENQRIADKLKNTGSAQLVGLAQENAAVSNTAGQDEATAKAVLEPIQSTSLIGTLTRTSDSEVPDVESREDLIKNHYMARIVELTSQLQLADSKSVHFYAECRALSKRLALAEKSKEALTEEMKLASQNISRLQDELTTTKRSYEDQLSMMSDHLCSMNETLSKQREEIDTLKMSSKGNSKKNKSR
B4: Fy-3 (C12orf4), untagged subunit of the recombinant FERRY and GST-FERRY complexes (natural protein, human, UniProt Q9NQ89 1-552, looked up)
chain: MKKNRERFCNREREFVYKFKVGSQCLELRVPLKFPVQENASHLHGRLMLLHSLPCFIEKDLKEALTQFIEEESLSDYDRDAEASLAAVKSGEVDLHQLASTWAKAYAETTLEHARPEEPSWDEDFADVYHDLIHSPASETLLNLEHNYFVSISELIGERDVELKKLRERQGIEMEKVMQELGKSLTDQDVNSLAAQHFESQQDLENKWSNELKQSTAIQKQEYQEWVIKLHQDLKNPNNSSLSEEIKVQPSQFRESVEAIGRIYEEQRKLEESFTIHLGAQLKTMHNLRLLRADMLDFCKHKRNHRSGVKLHRLQTALSLYSTSLCGLVLLVDNRINSYSGIKRDFATVCQECTDFHFPRIEEQLEVVQQVVLYARTQRRSKLKESLDSGNQNGGNDDKTKNAERNYLNVLPGEFYITRHSNLSEIHVAFHLCVDDHVKSGNITARDPAIMGLRNILKVCCTHDITTISIPLLLVHDMSEEMTIPWCLRRAELVFKCVKGFMMEMASWDGGISRTVQFLVPQSISEEMFYQLSNMLPQIFRVSSTLTLTSKH
B5: His6-Fy-4 (Cryzl1) (natural protein, human, UniProt O95825 1-349, looked up)
chain: MKGLYFQQSSTDEEITFVFQEKEDLPVTEDNFVKLQVKACALSQINTKLLAEMKMKKDLFPVGREIAGIVLDVGSKVSFFQPDDEVVGILPLDSEDPGLCEVVRVHEHYLVHKPEKVTWTEAAGSIRDGVRAYTALHYLSHLSPGKSVLIMDGASAFGTIAIQLAHHRGAKVISTACSLEDKQCLERFRPPIARVIDVSNGKVHVAESCLEETGGLGVDIVLDAGVRLYSKDDEPAVKLQLLPHKHDIITLLGVGGHWVTTEENLQLDPPDSHCLFLKGATLAFLNDEVWNLSNVQQGKYLCILKDVMEKLSTGVFRPQLDEPIPLYEAKVSMEAVQKNQGRKKQVVQF
B6: His6-Fy-5 (Gatd1) (natural protein, human, UniProt Q8NB37 1-220, looked up)
chain: MASERLPNRPACLLVASGAAEGVSAQSFLHCFTMASTAFNLQVATPGGKAMEFVDVTESNARWVQDFRLKAYASPAKLESIDGARYHALLIPSCPGALTDLASSGSLARILQHFHSESKPICAVGHGVAALCCATNEDRSWVFDSYSLTGPSVCELVRAPGFARLPLVVEDFVKDSGACFSASEPDAVHVVLDRHLVTGQNASSTVPAVQNLLFLCGSRK

The binders below were run against Fy-1 (TBCK);Fy-2 (PPP1R21);Fy-3 (C12orf4);Fy-4 (CRYZL1);Fy-5 (GATD1) (Homo sapiens;Homo sapiens;Homo …, UniProt Q8TEA7;Q6ZMI0;Q9NQ89;O95825;Q8NB37 1-893;1-780;1-552;1-349;1-220, ||||) (assay: EMSA).

| Binder | binding result |
| --- | --- |
| B1 | no binding |
| B2 | no binding |

Each binder was assayed against T1, His6-Fy-1 (Tbck), subunit of the reconstituted FERRY complex (human, UniProt Q8TEA7 1-893) (assay: SEC).
T1 sequence (looked up): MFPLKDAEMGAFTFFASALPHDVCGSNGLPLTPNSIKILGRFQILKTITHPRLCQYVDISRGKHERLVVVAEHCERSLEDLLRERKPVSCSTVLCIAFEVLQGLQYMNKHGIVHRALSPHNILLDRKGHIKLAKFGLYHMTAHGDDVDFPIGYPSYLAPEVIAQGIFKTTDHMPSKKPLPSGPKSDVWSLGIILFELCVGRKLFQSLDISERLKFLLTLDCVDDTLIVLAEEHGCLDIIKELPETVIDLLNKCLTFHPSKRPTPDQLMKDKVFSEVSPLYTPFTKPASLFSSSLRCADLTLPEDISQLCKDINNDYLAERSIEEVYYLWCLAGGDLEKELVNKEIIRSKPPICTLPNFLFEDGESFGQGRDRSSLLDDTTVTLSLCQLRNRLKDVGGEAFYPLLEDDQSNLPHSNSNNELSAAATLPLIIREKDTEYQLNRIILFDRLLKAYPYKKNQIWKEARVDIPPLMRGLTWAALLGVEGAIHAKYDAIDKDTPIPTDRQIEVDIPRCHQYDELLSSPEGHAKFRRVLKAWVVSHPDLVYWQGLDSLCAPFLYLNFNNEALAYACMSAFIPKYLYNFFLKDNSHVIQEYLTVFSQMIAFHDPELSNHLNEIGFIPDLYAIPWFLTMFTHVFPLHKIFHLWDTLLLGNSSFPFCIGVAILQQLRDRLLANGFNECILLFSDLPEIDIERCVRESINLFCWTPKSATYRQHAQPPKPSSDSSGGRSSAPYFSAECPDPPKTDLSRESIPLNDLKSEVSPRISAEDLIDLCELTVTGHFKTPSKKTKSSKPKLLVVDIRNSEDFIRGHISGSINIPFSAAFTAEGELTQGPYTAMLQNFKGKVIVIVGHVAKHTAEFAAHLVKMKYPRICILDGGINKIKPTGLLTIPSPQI

| Binder | stoichiometry N |
| --- | --- |
| B3 | 2 |
| B4 | 1 |
| B5 | 2 |
| B6 | 4 |
